Test results: patent US20110263454A1, “Methods of Identifying Functional Characteristics of Promoters, Transcription Modifying Proteins and Transcription Modulating Agents” (Salk Institute for Biological Studies, priority 2008, published 2011)

Experiments:
mAgrp promoter = experiment: NHR-promoter luciferase screen, mAgrp promoter; type: cell-based, mouse; conditions: for Results of assays of transcription factor (+/- ligand) with mAgrp: Table 6d, luciferase activity relative to control (control = 1.00); for Luc. act., normalized to lacZ / Normalized Luc. act., normalized to control: mAgrp promoter, HR component with or without ligand; for Normalized Luc. act., normalized to control: relative to control
Method in brief: (§1)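 CV-1 cells were co-transfected with 50 ng NHR (homodimer or NHR/RXR heterodimer), 100 ng promoter-luciferase construct and 50 ng LacZ. Luciferase was normalized to LacZ and to a no-NHR/no-ligand control.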

mPer1 promoter = experiment: NHR-promoter luciferase screen, mPer1 promoter; type: cell-based, mouse; conditions: for Luc. act., normalized to lacZ / Normalized Luc. act., normalized to control: Per1 promoter reporter, co-transfected HR, with or without its ligand; for Normalized Luc. act., normalized to control: relative to control; for luciferase activity normalized to lacZ activity and to a control, mPer1: mPer1 promoter-luciferase, CV-1 cells, NHR +/- ligand, control = 1.00
Method in brief: as §1

hCYP3A4 promoter = experiment: NHR-promoter luciferase screen, hCYP3A4 promoter; type: cell-based, human; conditions: for Luc. act., normalized to lacZ / Normalized Luc. act., normalized to control: CYP3A4 promoter, HR/ligand component; for hCYP3A4 promoter reporter activity: transcription factor +/- ligand, control = 1.00
Method in brief: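 CV-1 cells co-transfected with NHR homodimer or NHR/RXR heterodimer (pcDNA3.1, C-terminal V5H6 tag), promoter-luciferase construct and LacZ transfection control. Orphan receptors screened without ligand. Luciferase normalized to LacZ and to no-NHR/no-ligand control.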

hPPARg1 promoter = experiment: NHR-promoter luciferase screen, hPPARg1 promoter; type: cell-based, human; conditions: for Luc. act., normalized to lacZ / Normalized Luc. act., normalized to control: PPARG1 promoter, hormone receptor with or without its ligand; for Normalized Luc. act., normalized to control: relative to control; for Results of assays of transcription factor (+/- ligand) with hPPARg1: Table 6d, luciferase activity relative to control (control = 1.00)
Method in brief: as §1

hCAR promoter = experiment: NHR-promoter luciferase screen, hCAR promoter; type: cell-based, human; conditions: for luciferase activity normalized to lacZ activity and to a control, hCAR: hCAR promoter-luciferase, CV-1 cells, NHR +/- ligand, control = 1.00; for Luc. act., normalized to lacZ / Normalized Luc. act., normalized to control: hCAR promoter, HR/ligand component
Method in brief: as §1

mUCP1 promoter = experiment: NHR-promoter luciferase screen, mUCP1 promoter; type: cell-based, mouse; conditions: for Luc. act., normalized to lacZ / Normalized Luc. act., normalized to control: mUCP1 promoter reporter, co-transfected HR, with or without its ligand; for Normalized Luc. act., normalized to control: relative to control; for luciferase activity normalized to lacZ activity and to a control, mUCP!: mUCP! promoter-luciferase, CV-1 cells, NHR +/- ligand, control = 1.00
Method in brief: as §1

B1: NR4a2: NR4a2 (NR4A2; NURR1), nuclear hormone receptor cDNA driver (protein, UniProt P43354 1-598, looked up)
Nuclear receptor subfamily 4 …: MPCVQAQYGSSPQGASPASQSYSYHSSGEYSSDFLTPEFVKFSMDLTNTEITATTSLPSFSTFMDNYSTGYDVKPPCLYQMPLSGQQSSIKVEDIQMHNYQQHSHLPPQSEEMMPHSGSVYYKPSSPPTPTTPGFQVQHSPMWDDPGSLHNFHQNYVATTHMIEQRKTPVSRLSLFSFKQSPPGTPVSSCQMRFDGPLHVPMNPEPAGSHHVVDGQTFAVPNPIRKPASMGFPGLQIGHASQLLDTQVPSPPSRGSPSNEGLCAVCGDNAACQHYGVRTCEGCKGFFKRTVQKNAKYVCLANKNCPVDKRRRNRCQYCRFQKCLAVGMVKEVVRTDSLKGRRGRLPSKPKSPQEPSPPSPPVSLISALVRAHVDSNPAMTSLDYSRFQANPDYQMSGDDTQHIQQFYDLLTGSMEIIRGWAEKIPGFADLPKADQDLLFESAFLELFVLRLAYRSNPVEGKLIFCNGVVLHRLQCVRGFGEWIDSIVEFSSNLQNMNIDISAFSCIAALAMVTERHGLKEPKRVEELQNKIVNCLKDHVTFNNGGLNRPNYLSKLLGKLPELRTLCTQGLQRIFYLKLEDLVPPPAIIDKLFLDTLPF
mAgrp promoter
  Results of assays of transcription factor (+/- ligand) with mAgrp: 0.88
  Luc. act., normalized to lacZ: 35.1
  Normalized Luc. act., normalized to control: 0.9
mPer1 promoter
  Luc. act., normalized to lacZ: 155.3
  Normalized Luc. act., normalized to control: 1.1
  luciferase activity normalized to lacZ activity and to a control, mPer1: 1.08
hCYP3A4 promoter
  Luc. act., normalized to lacZ: 3.5
  Normalized Luc. act., normalized to control: 0.8
  hCYP3A4 promoter reporter activity: 0.79
hPPARg1 promoter
  Luc. act., normalized to lacZ: 58.8
  Normalized Luc. act., normalized to control: 0.9
  Results of assays of transcription factor (+/- ligand) with hPPARg1: 0.85
hCAR promoter
  luciferase activity normalized to lacZ activity and to a control, hCAR: 0.58
  Luc. act., normalized to lacZ: 18.4
  Normalized Luc. act., normalized to control: 0.6
mUCP1 promoter
  Luc. act., normalized to lacZ: 4.4
  Normalized Luc. act., normalized to control: 1.0
  luciferase activity normalized to lacZ activity and to a control, mUCP!: 0.99

B2: DAX-1: DAX1 (NR0B1), cDNA driver (protein, UniProt P51843 1-470, looked up)
Nuclear receptor subfamily 0 …: MAGENHQWQGSILYNMLMSAKQTRAAPEAPETRLVDQCWGCSCGDEPGVGREGLLGGRNVALLYRCCFCGKDHPRQGSILYSMLTSAKQTYAAPKAPEATLGPCWGCSCGSDPGVGRAGLPGGRPVALLYRCCFCGEDHPRQGSILYSLLTSSKQTHVAPAAPEARPGGAWWDRSYFAQRPGGKEALPGGRATALLYRCCFCGEDHPQQGSTLYCVPTSTNQAQAAPEERPRAPWWDTSSGALRPVALKSPQVVCEAASAGLLKTLRFVKYLPCFQVLPLDQQLVLVRNCWASLLMLELAQDRLQFETVEVSEPSMLQKILTTRRRETGGNEPLPVPTLQHHLAPPAEARKVPSASQVQAIKCFLSKCWSLNISTKEYAYLKGTVLFNPDVPGLQCVKYIQGLQWGTQQILSEHTRMTHQGPHDRFIELNSTLFLLRFINANVIAELFFRPIIGTVSMDDMMLEMLCTKI
mAgrp promoter
  Results of assays of transcription factor (+/- ligand) with mAgrp: 1.07
  Luc. act., normalized to lacZ: 42.3
  Normalized Luc. act., normalized to control: 1.1
mPer1 promoter
  Luc. act., normalized to lacZ: 153.4
  Normalized Luc. act., normalized to control: 1.1
  luciferase activity normalized to lacZ activity and to a control, mPer1: 1.07
hCYP3A4 promoter
  Luc. act., normalized to lacZ: 5.7
  Normalized Luc. act., normalized to control: 1.3
  hCYP3A4 promoter reporter activity: 1.29
hPPARg1 promoter
  Luc. act., normalized to lacZ: 67.5
  Normalized Luc. act., normalized to control: 1.0
  Results of assays of transcription factor (+/- ligand) with hPPARg1: 0.98
hCAR promoter
  luciferase activity normalized to lacZ activity and to a control, hCAR: 1.20
  Luc. act., normalized to lacZ: 38.0
  Normalized Luc. act., normalized to control: 1.2
mUCP1 promoter
  Luc. act., normalized to lacZ: 6.2
  Normalized Luc. act., normalized to control: 1.4
  luciferase activity normalized to lacZ activity and to a control, mUCP!: 1.39
